In the data set the test system is ATP. The data set can be described thus: switch fluorescence ratio, 500 uM ATP over buffer (Cy3 cluster intensity, sum of 5 cycles each) (fold (ratio)); higher = stronger signal-on switching upon ATP binding; sequences stand for … in TCGTCGGCAGCGTCAGATGTGTATAAGAGACAGTTTTTTTTTTTTTTTTTTTTTTTTT…TC. The note with it: aptamer strand: ATP DNA aptamer (quencher-CACCTGGGGGAGTATTGCGGAGGAAGG + anchor), 100 nM annealed; ATP concentration: 500 uM. The procedure, abridged:
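The quencher-labelled ATP aptamer, at 100 nM, was annealed to Cy3-labelled switching-strand clusters on a modified Illumina MiSeq flow-cell. The clusters were imaged in selection buffer, then after 15 min with 500 uM ATP at 22 °C, and this buffer/ATP cycle ran five times with NaOH stripping and re-annealing between runs. Per-cluster fluorescence ratios, summed target-cycle over summed buffer-cycle Cy3 intensity, were averaged per switch-domain sequence. Clusters outside 100-1000 RFU were excluded.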

± gives the standard deviation of the averaged measurements.
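Further: ATP exposure 15 min at 22 °C before imaging.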

On to TACAGCTGGG, for which the switch fluorescence ratio came to 1.01 ± 0.016.

Take TACAGGATGG: the switch fluorescence ratio amounted to 0.9694 ± 0.0057.

For TACAGGGAGT, the switch fluorescence ratio stood at 1.06 ± 0.047.

TACAGGGCTG: the switch fluorescence ratio turned out to be 1.02 ± 0.057.

With TACAGTGAAA, the switch fluorescence ratio worked out at 1.05 ± 0.057.

In the case of TACATAAGTT, the switch fluorescence ratio worked out at 1.02 ± 0.0074.

Consider TACATAATTA, for which the switch fluorescence ratio is 0.993 ± 0.021.

In the case of TACATATGGT, the switch fluorescence ratio was 1.03 ± 0.0018.

Consider TACATCGTTT, for which the switch fluorescence ratio came out at 1 ± 0.025.

With TACATGATGG, the switch fluorescence ratio came out at 1 ± 0.035.

For TACATGGGCA, the switch fluorescence ratio is 1.01 ± 0.044.

In the case of TACATGTAGC, the switch fluorescence ratio was found to be 0.986 ± 0.02.

For TACATTTATA, the switch fluorescence ratio came out at 1.02 ± 0.019.

As for TACATTTTAC, the switch fluorescence ratio came to 1.151 ± 0.0082.

On to TACCAACATC, for which the switch fluorescence ratio amounted to 1.093 ± 0.0039.

With TACCAGTCGC, the switch fluorescence ratio was 1.03 ± 0.026.

As for TACCAGTGCG, the switch fluorescence ratio was 1.19 ± 0.15.

With TACCAGTGCT, the switch fluorescence ratio is 1.075 ± 0.0019.

As to TACCCGGTTT, the switch fluorescence ratio turned out to be 0.999 ± 0.026.

As for TACCGGATTT, the switch fluorescence ratio was 0.979 ± 0.0026.

For the sequence TACCGTTTAT, the switch fluorescence ratio turned out to be 1.02 ± 0.036.

Take TACCTAATTA: the switch fluorescence ratio is 1.04 ± 0.046.

Turning to TACCTACATC, the switch fluorescence ratio stood at 1.26 ± 0.031.

TACCTCATGG: the switch fluorescence ratio was determined as 1.01 ± 0.054.

As for TACCTGGTCG, the switch fluorescence ratio came to 1.03 ± 0.041.

Regarding TACCTTGTCT, the switch fluorescence ratio is 1.04 ± 0.042.

Regarding TACGAATAGG, the switch fluorescence ratio amounted to 1.017 ± 0.0043.

Take TACGCCTGTG: the switch fluorescence ratio was 1.01 ± 0.037.

As for TACGCTGGGG, the switch fluorescence ratio stood at 1.02 ± 0.04.

Regarding TACGCTTAGC, the switch fluorescence ratio was 1.1 ± 0.031.

Take TACGGAAGGA: the switch fluorescence ratio was 1.1 ± 0.021.

With TACGGGAATT, the switch fluorescence ratio stood at 1.04 ± 0.023.

In the case of TACGGGAGCT, the switch fluorescence ratio was 1.05 ± 0.026.

Turning to TACGGGCCGG, the switch fluorescence ratio turned out to be 0.98 ± 0.011.

For the sequence TACGGGGACG, the switch fluorescence ratio stood at 1.02 ± 0.026.

Turning to TACGGGGTAG, the switch fluorescence ratio stood at 0.996 ± 0.028.

For the sequence TACGGGTAGC, the switch fluorescence ratio worked out at 1.04 ± 0.02.

As for TACGGTTTAG, the switch fluorescence ratio was 1 ± 0.048.

With TACGTAATCT, the switch fluorescence ratio is 1.27 ± 0.014.

TACGTAATTT: the switch fluorescence ratio was found to be 1.17 ± 0.018.

As to TACGTATAGG, the switch fluorescence ratio is 1.098 ± 0.0028.

As for TACGTCAGTC, the switch fluorescence ratio amounted to 1.05 ± 0.028.

TACGTGCTCC: the switch fluorescence ratio was determined as 1.144 ± 0.0012.

On to TACGTGGGGC, for which the switch fluorescence ratio turned out to be 1.01 ± 0.0079.

Take TACGTGGGGT: the switch fluorescence ratio is 1.01 ± 0.018.

On to TACGTGGGTA, for which the switch fluorescence ratio was 1 ± 0.0047.

For the sequence TACGTTATAG, the switch fluorescence ratio amounted to 1.11 ± 0.025.

Take TACGTTGCTT: the switch fluorescence ratio amounted to 0.9959 ± 0.0022.

As for TACGTTGGCA, the switch fluorescence ratio is 1.03 ± 0.035.

For the sequence TACGTTTACG, the switch fluorescence ratio was found to be 1.018 ± 0.0027.

On to TACGTTTCT, for which the switch fluorescence ratio was found to be 1 ± 0.054.

For the sequence TACGTTTTGT, the switch fluorescence ratio worked out at 1.01 ± 0.011.

On to TACTAGAACT, for which the switch fluorescence ratio turned out to be 1.03 ± 0.035.

In the case of TACTAGACAG, the switch fluorescence ratio came to 1.028 ± 0.0016.

With TACTATCGTT, the switch fluorescence ratio is 0.994 ± 0.01.

As to TACTATTTTA, the switch fluorescence ratio worked out at 1 ± 0.016.

TACTCAGAGG: the switch fluorescence ratio came out at 1.04 ± 0.021.

For TACTCTTCAT, the switch fluorescence ratio is 1.12 ± 0.15.

Turning to TACTCTTTTC, the switch fluorescence ratio was determined as 1.02 ± 0.034.

On to TACTGAAGGG, for which the switch fluorescence ratio turned out to be 1.02 ± 0.031.

As for TACTGAATGT, the switch fluorescence ratio stood at 1.02 ± 0.013.

TACTGATCGT: the switch fluorescence ratio turned out to be 1.04 ± 0.024.

Turning to TACTGCCAGC, the switch fluorescence ratio is 1.08 ± 0.054.

On to TACTGGCTGT, for which the switch fluorescence ratio came to 1.01 ± 0.029.

On to TACTGGGCAC, for which the switch fluorescence ratio is 3.22 ± 3.

As to TACTGGGGCT, the switch fluorescence ratio worked out at 1.04 ± 0.034.

For the origin of these results see the supplement of paper PMC10126150.
